Test: soluble on expression in E. coli; label from the status in PepcDB or PDB records

Sequence | soluble on expression in E. coli
MGSDKIHHHHHHMIHSETFAEIATLKERNLIALKEAREAGRHAVGTYCLFSPTELILAAGAIPVSLCGTSQKPIPAAEKVLPRNLCPLIKSSYGFAVTDTCPYFHFADFLLAETTCDGKKKMYELLGELKPIHVMQLPQIQDEAALDYWLMEIGRLKTRLEREFGVRITDKALTEAIRLMNEERRSLQALQDVCKAIPSPISGLDLLTVLHNRGFSVDRRAAIELVDRFAAELRQMAAAGISPFTESTPRILLTGVPVGVGSEKLIRIIEESGASVVCLESCGAYKKVEQVREGGDPLRAIAERYLKVPCSCMSPNTGRLELVERLTREFRVDGVVDLTWLGCHTYAVESSVLKKHLQQRTGLPFLQIETDYSESDTGQLKVRVEAFLEIVHRSMKRTA | not soluble
MSLGSGHAGKARSAVTTTDADWKPVADALGRSGKLGDNNTAYRINLPRNDLHITSYGVDIKPGLSLGGYAAFARYDNNETLLMGDLVITEEELPKVTDALQAHGIAQTALHKHLLQQDPPVWWTHIHGMGDAARLAQGLKAALDATTIGPPTPPPARQPPVDIDVAGVDQALGRKGTQDGGLMKYSIPRKDTIIEDGHVLPAVSLNLTTVINFQPVGRGRAAINGDFILIAPEVQEVIRAMRAGNITIVELHNHGLTEEPRLFYMHYWAVDDAVTLARALRPAMDATNLQSEGHHHHHH | soluble
MQDTLPIHFAPLQGYTEAIYRNAHDAFFGGVDTYYTPFVRLEKGNFRRRDVRGIEPENNGVPHLIPQLIASSAEKAEVILSLFIEKGYQEVDINLGCPFPLLAKRHNGSGILPYPEEVKALLSIVTRYPQISFSVKMRLGWEQPDECLALAPILNDLPLRQITMHPRLGKQGYKGEVDLQGFSAFREVCQLPLVYNGDIHNLEDIQRISTQFPSLAGIMIGRGLLANPALALEYKENRTLAPDEMRDRLKSMHKSVYNNYDVLLEGGEGQLLTKMKTFWEYLAPQTDRKVLKAIHKSTNISKYYQAVSAFFNQR | not soluble
MGKPSGERILQMKIALVMLAAGNSRRFGSNKLLYEIEGKPMYLLTLEKLKKASEKIPESEIIVVTQYEEIVKKAGEMKIPVFINPRPEDGISLSMQIGLMSVRDTDACLFTVSDQPWLEADTVVALTELFENEKKGMACIRWNGKTGNPCIFGQKYYEELMEISGDKGGKKIIKKHPEDVAYLQIRNARELQDADEPDVFTAGNLR | not soluble
GSHMVPEPDLPHDLRHLNTEPMEIFRNSVKIEEIMPNGDPLLAGQNTVDEVYVSRPS | soluble
MLTEKTKKELIRLSKVNNYIIKVETNQNFKHQSKCGDQILFQIIETNNGKFNLKHHASGCIVLLASANALNKLCNNKAKSEILNLVQKVINSNFANLDEIDVSLKIFNVFTNTNRKDCFLLPYKSLKDSLESYKPLRRTIRLEHHHHHH | not soluble
MGSDKIHHHHHHMTKNHKISVDQLQVGTHISLPVSWKDHPFLFSSFKIKDAAQIELIRHLGITEVFFNPEKSDTQPLALDAIQGDSIDLDDMVDASDTDEMMLLKNEMEVKKQDSIDKQQQMRRSINKTEKQFDRSVAMMRSVVSKLGSRPLNAVNDAKELIHNLTDLLLNSDNLVLHLMGDAKPEEGIYHHSLNVSVLCMLLGKGLGWSREEIELIGIGALFHDVGKLKIPSNILNKRTPLSVPEVNFIKQHPLMSINFLKLADNFPAAAEPLIANHHEFLDGSGSPQGLKADKLDNLSQLIAVVNEYDNLCNGNMQTKGKTPFAALSFLYKNYTKKLNKEYVGRMIKTLGIYPPGCIIELSSGQFGLVMSVNLKNILFPRIMVYDPQVPKDQAPIIDLEQEGIKIVRCLPPAALPENIFKYLNPREKVSYGLGSES | not soluble
MGHHHHHHSHMNQSRSRSDGGSEETLPQDHNHHENERRWQQERLHREEAYYQFINELNDEDYRLMRDHNLLGTPGEITSEELQQRLDGVKEQLASQPDLRDGTNYRDSEVPRESSHEDSLLEWLNTFRRTGNATRSGQNGNQTWRAALPDTS | not soluble
MNLPAHTALFTPSWHAELELGYGRFYDCTRPTQRRHKGPLRVQKHLYAEGPEVCQHIIVHPPGGIAGGDRLDISVNVGAHAWAQLTSPGAAKWYRAASPAFQQLELHVQPGATLEWLPQETIVFSNAQAELTTRIELHGDARLCYWDVVALGRPASGERFEHGHFQSHLDIRRDGTLLWHERQRIIGADGLLDSPIGLDGKTVFATLLLTGDVDSDLLEVCRSLSMPSPVRGNLTQLPGLIVARCLADEALHARAWLIEIWKRLRPALLGREAVMPRIWNTLEHHHHHH | not soluble
MNQQEFQLREITYQDIKDLLAIEREVYAGELPWTMSAFMAELGSKAPHLYLLAAINGKTVGFIGCRIQGTDAHITNVAVHTAYQGLGLGRSLIEETRIFAKKNRCETLSLEVRMSNVKAQRLYRKIGFVSQTVKKGYYDENNEDALEMIIDLKEE | not soluble
MSLANQPIDLLMQPKWRVIDQSSLGPLFDAKQSFAMDDTLCMSVGKGVSPATARSWVHHDTIVLGIQDTRLPFLQDGISLLESEGYRVIVRNSGGLAVVLDDGVLNISLIFEDEKKGIDIDKGYEAMVELMRRMLRPYNAKIEAYEIEGSYCPGSYDLSINGKKFAGISQRRVRGGVAVQIYLCADKSGSERADLIRRFYQAALKDKQNDKKGVYPEIRPETMASLSELLQKDISVQDLMFALLTELKALSTHLYSAGLSIDEEMEFEKNLVRMAERNAKVFGEGHHHHHH | soluble
MPVAVMADNAFSFRKLLDQCENQELEAPGGIATPPVYGQLLALYLLQNDMNNARYLWKRIPPAIKSANSELGGIWSVGQRIWQRDFPGIYTTINAHQWSETVQPIMEALRDATRRRAFALVSQAYTSIIADDFAAFVGLPVEEAVKGVLEQGWQADSTTRMVLPRKPAPGALDVSLNRFIPLSEPAPVPPIPNEQQLARLTDYVAFLEN | not soluble
KETVPYQIPYTPSELEELQQNIKLELEGKEQELALELLNYLNEKGFLSKSVEEISDVLRCSVEELEKVRQKVLRLE | soluble
MAQYRPDELARYAQRVMDWLHPDGDLTDTERARKRGITLSNQQYDGMSRLSGYLTPQARATFEAVLAKLAAPGATNPDDHTPVIDTTPDAAAIDRDTRSQAQRNHDGLLAGLRALIASGELGQHNGLPVSIVVTTTLTDLQTGAGKGFTGGGTLLPMADVIRMTSHAHHYSPASGRYPQAIFDHGTPLALYHTKRLASPAQRIMLEHHHHHH | soluble
MSLNMKVLITASSRGIGFNLAKELLNKGHEVTITSSNIRNIENAYKELRELGTVHYFQADLSSKEDIKRMVKDAWDAMGRIEALIWNAPNVKCEPCMVHEARYRDWLEAALLHLVSPGYITTLLIQAWLEKKIKGVLIYLSSASVLEPMPPLLLADTARAGLVQLTKGITRAYGGKGIRAYVVLLGSFDTPGARENLAKIAEERGMSLEEIWRKEVIERTPLKRTGKWSELGALIDFLLSENAEYMMGSTILFDGAMTRGVNEGHHHHHH | not soluble
SHMAGHQIVHVRGDSETDLEALFNAVMNPKTANVPQTVPMRLRKLPDSFFKPPEPKSHSRQASTDAGTAGALTPQHVRAHSSPASLQLGAVSPGTLTPTGVVSGPAATPTAQHLRQSSFEIPDDV | soluble
MGSDKIHHHHHHMIQGKKFISPGTWFSMIYPSDWSEFEDGEGSFLFYNPEHWTGNFRISAYKEDAAAPGGMNYGKDSVRQELKENPSASLVKVGHLECAYSKEMFEEEGIYYTSHLWVTGIDNVAFECSFTVPKGEHVDEAEKIISSLEIRKDGQKYPAEIIPIRLSEIYQVNEAYEWVTDTVKTQLKKDFQGLEEDLQKIQDVIDSGVLSPKKKEPWLAFGIAICTILANEVEGMEWMTLVDGNREVPVLRYEGSEQLIDPMKLLWSRVRAGETCEVAEAYKQALIH | not soluble
MSDIFNSPQNKASILTALMKSTTGDVEDVLIPKRFRPAKDPLDSPQAAAQFLKDNKYRILRPRAIPTMVELETDAALPRLRQMVEDGKLKDTVSVPEGTTAFYPKYYPFHKPDHDEVGTFGAPDITLLKQLTFFLLENDFPTGPETLRQVREAIATLQYGSGSYSGQLNRLLAMKGVATGRNPNKTPKTVGYTNEQLAKLLEQTLPINTPKHEDPDLRWAPSWLINYTGDLSTDKSYLPHVTIKSSAGLPYIGKTKGDTTAEALVLADSFIRDLGRAATSADPEAGVKKTITDFWYLSCGLLFPKGERYTQVDWDKKTRNIWSAPYPTHLLLSMVSTPVMNESKLNITNTQTPSLYGFSPFHGGMDRIMTIIRDSLDNDEDLVMIYADNIYILQDNTWYSIDLEKGEANCTPQHMQAMMYYLLTRGWTNEDGSPRYNPTWATFAMNVAPSMVVDSSCLLMNLQLKTYGQGSGNAFTFLNNHLMSTIVVAEWVKAGKPNPMTKEFMDLEEKTGINFKIERELKNLRETIVEAVETAPQDGYLADGSDLPPIRPGKAVELDLLGWSAIYSRQMEMFVPVLENERLIASAAYPKGLENKALARKPGAEIAYQIVRYEAIRLVGGWNNPLLETAAKHMSLDKRKRLEVKGIDVTGFLDDWNNMSEFGGDLEGITLSEPLTNQTLVDINTPLDSFDPKARPQTPRSPKKTLDEVTTAITSGTYKDPKSAVWRLLDQRTKLRVSTLRDQALALKPASSSVDNWAEATEELAQQQQLLMKANNLLKSSLTETREALETIQSDKIIAGKSNPEKNPGTAANPVVGYGEFSEKIPLTPTQKKNAKRREKQRRNQ | not soluble
AVSGIRQSLISRKALTLFKTVLPAMSQTEKEALDAGTVWWEAELFKGKPEWEKLHAIQAPKLSAEERAFLDGPVNEVCAMVSDFQVTHELADLPPEVWQYLKDNKFFAMIIK | not soluble
MSLIVKVSPKGSMDQLSQLEVDRLKKSAQSALYQLYRNCSLAVLAAGLKTDNSKALFEQYSDFDIHVLQRERGVKLELINPPEQAFVDGQIITGIQEHLFSVLRDILYISDKYDTLKHINLTNASHITNVVFDILRNARAIAPMKDPNVVVCWGGHSINAIEYQYTREVGYQLGLRELDICTGCGPGAMEGPMKGAAIGHSKQRIKNARYIGLTEPSIIAAEPPNQIVNELVILPDIEKRLEAFVRLGHGIIIFPGGAGTAEELLYILGILLNKENQETPFPLVLTGPSESADYFIKIDEFIAATLGPEAQQKYQIIIDNPAEVARVMKQGMEQVKNHRRTTGDAYQYQWGLKIEPEFQLPFIPTHDVMANLNLHFQSNKAELAANLRKAFSGIVAGNVKSETIKQIEQLGPFHIKGDPHLMELMDNLLGAFVAQHRMKLPGSAYVPCYQIVKEGHHHHHH | soluble
MSVSGLKAELKFLASIFDKNHERFRIVSWKLDELHCQFLVPQQGSPHSLPPPLTLHCNITESYPSSSPIWFVDSEDPNLTSVLERLEDTKNNNLLRQQLKWLICELCSLYNLPKHLDVEMLDQPLPTGQNGTTEEVTSEEEEEEEEMAEDIEDLDHYEMKEEEPISGKKSEDEGIEKENLAILEKIRKTQRQDHLNGAVSGSVQASDRLMKELRDIYRSQSYKTGIYSVELINDSLYDWHVKLQKVDPDSPLHSDLQILKEKEGIEYILLNFSFKDNFPFDPPFVRVVLPVLSGGYVLGGGALCMELLTKQGWSSAYSIESVIMQINATLVKGKARVQFGANKNQYNLARAQQSYNSIVQIHEKNGWYTPPKEDG | soluble
MGSDKIHHHHHHMTPRDTVAAFPATSQQSAIRATPFVWIEPANIPPRKWLYGHHLIRGYVSLTVAPGATGKSSLLIADALAMSANRNLVGTPVYAGRPLRVWIWNLEDPIDELQRRITATAIQYQIHSTDIEGRLFVDSGRDQSLCIARQGHNGIEILDPVIDALQAEILAREIDVLIVDPFVSSHQVSENDNGAIDAVAKKWGAIADRTGCAIELVHHLRKLPHGIEATAESARGAVSLVAAARSVRVLNRMAKEEALQCGLTSNKGHFKVSDDKNNLAAATDSENWFRMESVQLDNGDNVGVVVQWDKPDPFDGITPRHLLAVQKAIDGKDYRQNVQATDWVGQHIGHIVGLDPAKPHDKNRLKSLIKTWINNGALIADEIMNKKGRPTPVIAVGKWVTAAEVAATNVADDEFPLG | not soluble

Reference: the DeepSol protein solubility set
